Assay results: publication PMC8319299, “PALI1 facilitates DNA and nucleosome binding by PRC2 and triggers an allosteric activation of catalysis” (Nature Communications, 2020)
Where no end group is shown, it is not given here. [ ]: non-standard residue; d: D form. Lys(Me3) = C[N+](C)(C)CCCC[C@H](N)C(=O)O; Lys(Me2) = CN(C)CCCC[C@H](N)C(=O)O; Lys(Me) = CNCCCC[C@H](N)C(=O)O

Molecular target: T1, EED (amino acids 40-441) (human, UniProt O75530-1 40-441)
T1 construct: pGEX-MHL vector, TEV-cleavable GST tag; source: E. coli BL21 (DE3), purified (Glutathione-agarose, TEV cleavage, heparin, gel filtration); not shown: GST, N-terminal, cleaved
Assay: fluorescence polarisation; fluorescence anisotropy displacement titration: 2-fold serial dilutions of unlabelled peptide with 10 µM EED and 40 nM 5-FAM labelled JARID2-K116me3 peptide; same buffer, 30 °C; Kd of the unlabelled peptide from a fit
Settings: both partners purified

T1 sequence (O75530 40-441): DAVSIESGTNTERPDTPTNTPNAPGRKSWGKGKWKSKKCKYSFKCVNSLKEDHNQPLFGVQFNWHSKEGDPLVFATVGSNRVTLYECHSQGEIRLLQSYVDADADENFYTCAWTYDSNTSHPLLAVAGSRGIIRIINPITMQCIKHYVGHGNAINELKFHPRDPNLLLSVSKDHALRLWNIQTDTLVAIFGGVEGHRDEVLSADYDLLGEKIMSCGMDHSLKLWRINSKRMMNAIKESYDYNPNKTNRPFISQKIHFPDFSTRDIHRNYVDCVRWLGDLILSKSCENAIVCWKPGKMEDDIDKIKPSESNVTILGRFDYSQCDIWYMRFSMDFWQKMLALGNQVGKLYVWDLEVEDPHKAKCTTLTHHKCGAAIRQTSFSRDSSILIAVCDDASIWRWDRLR

Binder | Kd [µM]
TKAAR[Lys(Me3)]SAPAT (also: trimethyllysine at K27, position not placed (two Lys in chain)) [H3K27me3 peptide] | 41.7
LK[Lys(Me3)]FPG [PALI1-K1241me3 peptide] | 7.49
LK[Lys(Me)]FPG [PALI1-K1241me1 peptide] | 241
LK[Lys(Me2)]FPG [PALI1-K1241me2 peptide] | 19
LQ[Lys(Me3)]YA [PALI1-K1219me3 peptide] | 7.59

Molecular target: T1, EED (amino acids 40-441)
Assay: fluorescence polarisation; fluorescence anisotropy direct titration: various concentrations of EED (40-441) with 40 nM 5-FAM labelled JARID2-K116me3 peptide; 50 mM Tris-HCl pH 7.5, 100 mM KCl, 2 mM 2-mercaptoethanol, 0.1 mg/mL BSA, 0.05% NP-40, 2.5% glycerol; 30 °C, 30 min
Settings: both partners purified

Binder | Kd [µM]
RLQAQR[Lys(Me3)]FAQSQY (also: 5-FAM (5-carboxyfluorescein, single isomer) label, site not given here) [5-carboxyfluorescein (5-FAM) labelled JARID2-K116me3 peptide] | 8.07
